Laboratory results as given in patent US20240301086A1 (APTEVO RESEARCH AND DEVELOPMENT, published 2024).

Experiments:
human Fcγ receptor I = human Fcγ receptor I (human, UniProt P12314 16-288); experiment: SPR (Biacore T200), construct amine-coupled, Fcγ receptor as analyte
Experimental: (§1) The Fc region incorporated into anti-PSMA bispecific constructs contained mutations intended to reduce or abolish binding to common human and cynomolgus Fc gamma receptors. SPR experiments were conducted at 25° C. in HBS-EP+ with 0.2% BSA buffer on a Biacore T200 system to evaluate the impact of these mutations on binding. For these experiments, three flow cells of a CM5 sensor chip were immobilized with anti-PSMA bispecifics by standard amine coupling to a response level of ˜2000 RU. A blank immobilization was performed on flow cell #1 for purposes of background signal subtraction. Both human and cynomolgus monkey Fcγ receptors (purchased from R&D Systems) were diluted in HBS-EP+ with 0.2% BSA to 4-6 μM and then flowed as analytes at 30 μL/min for 120 seconds followed by a 240 second dissociation step. No regeneration step was required. Blank-subtracted sensorgrams were visually inspected for binding to each of the Fcγ receptor proteins. […] Attenuated binding to Fcγ receptors IIA (both polymorphic variants) and IIB/C was observed. PSMA01107 and PSMA01108 share the same Fc amino acid sequence and therefore equivalent Fcγ receptor binding behavior was expected.

[1] = target: human Fcγ receptor IIIA, V176 variant (human, UniProt P08637 17-208); experiment: as above
Experimental: as §1

[2] = target: human Fcγ receptor IIIA, F176 variant (human, UniProt P08637 17-208); experiment: as above
Experimental: as §1

human Fcγ receptor IIIB = human Fcγ receptor IIIB (human, UniProt O75015 17-200); experiment: as above
Experimental: as §1

[3] = target: T1, cynomolgus Fcγ receptor III (cynomolgus monkey, UniProt Q8SPW2 17-208); experiment: SPR (Biacore T200), construct amine-coupled, soluble cyno Fcγ receptor as analyte
T1 construct: Called recombinant, soluble; also called Cyno RIII
Experimental: as §1

[4] = target: T2, Full-length Human PSMA (TSC435), on cells (human, UniProt Q04609 1-750); experiment: flow cytometry on C4-2B cells, PE goat anti-human IgG Fc secondary, MFI (median)
T2 construct: also called CHOK1SV/huPSMA; PSMA on C4-2B, 22RV1, LNCaP, MDA-PCa-2b cells
Experimental: (§2) Constructs were initially tested in CD3ε and PSMA binding assays on Jurkat and C4-2B cells. Cells were labelled at approximately 100,000 cells per well, in 96-well plates, with serial dilutions of bispecific constructs ranging in concentration from of 0.1 to 300 nM, for 30 min on ice. Primary label was followed by washes and incubation with PE-labeled minimum cross species reactive secondary antibody, goat anti-human IgG Fcγ, F(ab′)2 (Jackson Laboratory) for 30 minutes on ice. Washes and incubation were done in staining buffer (PBS with 0.2% BSA and 2 mM EDTA). Cells were collected using an BD™ LSRII or a BD FACSymphony™ flow cytometer (BD Biosciences) and analyzed by FlowJo flow cytometry analysis software. Median fluorescence intensity (MFI) of bound molecules on cells was determined after exclusion of doublets. Results were plotted and nonlinear regression analysis to determine EC50 values was performed using GraphPad Prism 7© graphing and statistics software.

[5] = target: T2, Full-length Human PSMA (TSC435), on …; experiment: as above; remark: listed apart in the source
Experimental: as §2

[6] = target: T3, human CD3ε in the TCR/CD3 complex on Jurkat cells (human, UniProt P07766 23-207); experiment: flow cytometry on Jurkat cells, PE goat anti-human IgG Fc secondary, MFI (median)
T3 construct: whole, on cells; On the cells it stands in the whole TCR/CD3 complex; also called CD3 (+) cells; CD3-expressing Jurkat cells
Experimental: as §2

[7] = target: T3, human CD3ε in the TCR/CD3 complex on …; experiment: as above; remark: listed apart in the source
Experimental: as §2

[8] = target: T3, human CD3ε in the TCR/CD3 complex on …; experiment: flow cytometry, drawn table 'On- Cell Binding Parameters', row 'Human CD3 binding affinity'
Experimental: as §2

[9] = target: T2, Full-length Human PSMA (TSC435), on …; experiment: flow cytometry, drawn table 'On- Cell Binding Parameters', row 'Human PSMA binding affinity'
[10] = target: T4, Full-length cynomolgus monkey PSMA (TSC308), on cells (cynomolgus monkey, UniProt Q04609 1-750 (human entry)); experiment: flow cytometry on CHO-CynoPSMA cells, Median (PE); drawn table row 'Cyno PSMA binding affinity'
T4 construct: also called cyno PSMA; CHOK1SV/cynoPSMA
T4 chain: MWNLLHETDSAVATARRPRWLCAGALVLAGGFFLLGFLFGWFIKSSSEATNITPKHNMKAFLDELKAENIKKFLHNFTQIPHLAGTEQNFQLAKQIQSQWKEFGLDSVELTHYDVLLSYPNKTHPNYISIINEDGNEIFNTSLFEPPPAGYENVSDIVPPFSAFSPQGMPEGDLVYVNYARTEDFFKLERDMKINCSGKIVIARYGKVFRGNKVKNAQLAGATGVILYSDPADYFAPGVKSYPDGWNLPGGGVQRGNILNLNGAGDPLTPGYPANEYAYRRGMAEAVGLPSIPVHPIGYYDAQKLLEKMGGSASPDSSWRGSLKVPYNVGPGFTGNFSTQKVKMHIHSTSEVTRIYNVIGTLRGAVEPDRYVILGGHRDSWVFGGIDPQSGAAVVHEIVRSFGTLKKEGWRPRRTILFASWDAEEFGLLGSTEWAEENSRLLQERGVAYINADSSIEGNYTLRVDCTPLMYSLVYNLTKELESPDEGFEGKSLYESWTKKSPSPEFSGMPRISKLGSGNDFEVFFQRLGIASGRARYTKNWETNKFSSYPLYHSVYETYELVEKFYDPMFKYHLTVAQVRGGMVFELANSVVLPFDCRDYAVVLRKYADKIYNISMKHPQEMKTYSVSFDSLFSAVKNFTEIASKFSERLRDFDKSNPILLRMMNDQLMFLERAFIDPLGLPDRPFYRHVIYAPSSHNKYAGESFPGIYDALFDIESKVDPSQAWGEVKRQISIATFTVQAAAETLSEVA

T3 sequence (P07766 23-207, one chain of several): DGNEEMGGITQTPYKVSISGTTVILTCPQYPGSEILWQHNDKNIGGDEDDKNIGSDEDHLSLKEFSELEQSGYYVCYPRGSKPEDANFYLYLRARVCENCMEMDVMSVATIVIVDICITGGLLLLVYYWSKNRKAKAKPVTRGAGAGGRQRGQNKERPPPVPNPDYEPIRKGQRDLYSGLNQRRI
T1 sequence (Q8SPW2 17-208): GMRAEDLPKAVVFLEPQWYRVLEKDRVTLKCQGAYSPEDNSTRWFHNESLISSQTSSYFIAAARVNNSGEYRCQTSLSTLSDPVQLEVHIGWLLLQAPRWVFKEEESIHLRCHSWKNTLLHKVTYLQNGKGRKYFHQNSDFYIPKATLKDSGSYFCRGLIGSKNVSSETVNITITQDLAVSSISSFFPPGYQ
human Fcγ receptor IIIA, V176 variant, sequence (P08637 other isoform, or with tags, fused parts or gaps mutant): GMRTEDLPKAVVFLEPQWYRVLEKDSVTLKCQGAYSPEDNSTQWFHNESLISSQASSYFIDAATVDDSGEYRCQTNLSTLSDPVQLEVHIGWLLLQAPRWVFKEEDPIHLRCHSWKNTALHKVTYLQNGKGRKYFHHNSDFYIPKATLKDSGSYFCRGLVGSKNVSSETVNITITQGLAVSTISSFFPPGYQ
human Fcγ receptor I, sequence (P12314 16-288): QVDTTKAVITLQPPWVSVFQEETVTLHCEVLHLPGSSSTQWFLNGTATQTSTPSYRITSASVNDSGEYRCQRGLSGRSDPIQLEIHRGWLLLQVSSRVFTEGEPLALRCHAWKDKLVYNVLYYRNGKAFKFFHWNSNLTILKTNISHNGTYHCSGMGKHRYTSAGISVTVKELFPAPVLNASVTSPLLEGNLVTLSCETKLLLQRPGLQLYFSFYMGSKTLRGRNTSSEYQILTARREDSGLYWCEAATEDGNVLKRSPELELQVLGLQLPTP
human Fcγ receptor IIIA, F176 variant, sequence (P08637 17-208, change not shown): as the sequence (P08637 other isoform, or with tags, fused parts or gaps mutant) above, with V160F counted along it
human Fcγ receptor IIIB, sequence (O75015 17-200): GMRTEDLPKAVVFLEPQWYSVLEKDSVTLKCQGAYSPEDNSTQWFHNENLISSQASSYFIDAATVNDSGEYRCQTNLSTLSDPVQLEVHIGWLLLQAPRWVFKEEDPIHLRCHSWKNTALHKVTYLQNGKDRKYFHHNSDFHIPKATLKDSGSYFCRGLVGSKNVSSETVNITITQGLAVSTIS

B1: PSMA01108 Anti-PSMA scFv x Fc x linker x Anti CD3 scFv; Anti PSMA scFv x Fc (bispecific antibody)
chain 1: QVQLVQSGAEVKKPGASVKVSCKASGYTFTDYYMHWVRQAPGQGLEWMGYFNPYNDYTRYAQKFQGRVTMTRDTSTSTVYMELSSLRSEDTAVYYCARSDGYYDAMDYWGQGTTVTVSSGGGGSGGGGSGGGGSGGGGSDIQMTQSPSSLSASVGDRVTITCRASKSISKYLAWYQQKPGKAPKLLIHSGSSLESGVPSRFSGSGSGTEFTLTISSLQPDDFATYYCQQHIEYPWTFGQGTKVEIKEPKSSDKTHTCPPCPAPPAAAPSVFLFPPKPKDTLMISRTPEVTCVVVDVSHEDPEVKFNWYVDGVEVHNAKTKPREEQYNSTYRVVSVLTVLHQDWLNGKEYKCAVSNKALPAPIEKTISKAKGQPREPQVYTLPPSRDELTKNQVSLWCLVKGFYPSDIAVEWESNGQPENNYKTTPPVLDSDGSFFLYSKLTVDKSRWQQGNVFSCSVMHEALHNHYTQKSLSLSPGGGGSPSDIQMTQSPSSLSASVGDRVTITCRASSSVSYMNWYQQKPGKAPKRWIYDSSKLASGVPSRFSGSGSGTDFTLTISSLQPEDFATYYCQQWSRNPPTFGQGTKVEIKGGGGSGGGGSGGGGSGGGGSQVQLVQSGAEVKKPGASVKVSCKASGYTFTRSTMHWVRQAPGQGLEWIGYINPSSAYTNYAQKFQGRVTLTADKSTSTAYMELSSLRSEDTAVYYCASPQVHYDYNGFPYWGQGTLVTVSS
chain 2: QVQLVQSGAEVKKPGASVKVSCKASGYTFTDYYMHWVRQAPGQGLEWMGYFNPYNDYTRYAQKFQGRVTMTRDTSTSTVYMELSSLRSEDTAVYYCARSDGYYDAMDYWGQGTTVTVSSGGGGSGGGGSGGGGSGGGGSDIQMTQSPSSLSASVGDRVTITCRASKSISKYLAWYQQKPGKAPKLLIHSGSSLESGVPSRFSGSGSGTEFTLTISSLQPDDFATYYCQQHIEYPWTFGQGTKVEIKEPKSSDKTHTCPPCPAPPAAAPSVFLFPPKPKDTLMISRTPEVTCVVVDVSHEDPEVKFNWYVDGVEVHNAKTKPREEQYNSTYRVVSVLTVLHQDWLNGKEYKCAVSNKALPAPIEKTISKAKGQPREPQVYTLPPSRDELTKNQVSLSCAVKGFYPSDIAVEWESNGQPENNYKTTPPVLDSDGSFFLVSKLTVDKSRWQQGNVFSCSVMHEALHNHYTQKSLSLSPG
notes: also called PSMA1108; PSAM01108
**Q.** What does the source list for B1?
**A.** binding result (human Fcγ receptor I): no binding (tested: 4-6 µM); binding result [1]: no binding (tested: 4-6 µM); binding result [2]: no binding (tested: 4-6 µM); binding result (human Fcγ receptor IIIB): no binding (tested: 4-6 µM); binding result [3]: no binding (tested: 4-6 µM); EC50 [4]: 1 nM; EC50 [5]: 1 nM; EC50 [6]: > 210 nM; EC50 [7]: > 200 nM; EC50 [8]: > 200 nM; Max [8]: 409; EC50 [9]: 1 nM; Max [9]: 2500; EC50 [10]: 4 nM; Max [10]: 19500
